For orientation: Kd means a measure of binding affinity in units of concentration. Read a high Kd as lower affinity. The stoichiometry N is the number of molecules, sites or subunits per partner or assembly.

For this test, the target named is T1, nuclear translocation factor 2-like (NTF2L) domain of human G3BP1 (human, UniProt Q13283-1 1-138).
T1 construct: three extra residues Gly-Ala-Ser left at the N-terminus after TEV cleavage of the 6xHis tag; complete chains (1-138) are C, G, N and R; also called G3BP1-NTF2L domain; source: E. coli BL21 (DE3), purified (Ni-NTA, TEV cleavage, second Ni-NTA, SEC); not shown: His6, N-terminal, cleaved
T1 sequence (Q13283 other isoform, or with tags, fused parts or gaps): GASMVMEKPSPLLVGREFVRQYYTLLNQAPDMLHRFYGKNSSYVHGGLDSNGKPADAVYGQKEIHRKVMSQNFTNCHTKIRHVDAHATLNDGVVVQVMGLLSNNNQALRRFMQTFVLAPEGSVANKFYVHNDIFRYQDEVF
As to the kind of experiment: ITC; peptide injected into NTF2L in the cell, 20°C, 20 mM HEPES, 150 mM NaCl, pH 7.5. The note with it: both partners purified. In general terms: Isothermal titration calorimetry measures the heat released or taken up as one component is titrated into another.

B1: C-terminal region of CHIKV-43, 491LTFGDFLPGEVDDLTDSD508 (motif 2 and α2) (peptide)
peptide: LTFGDFLPGEVDDLTDSD
notes: also called C-terminus (motif 2 and α2) of CHIKV-43
The molecule B1 had a Kd of 2200 ± 500 nM.

B2: N-terminal region of CHIKV-43, 473ITFGDFNDGEIESLSSEL490 (motif 1 and α1) (peptide)
peptide: ITFGDFNDGEIESLSSEL
notes: also called N-terminus (motif 1 and α1) of CHIKV-43
In the case of B2, the Kd is 3400 ± 700 nM.
On to ITFGDFNDGEIESLSSELLTFGDFLP [CHIKV-26 peptide (residues Ile473 to Pro498 of CHIKV nsP3, without the α2 region)], for which the “fold reduction of binding affinity against CHIKV-43 with NTF2L” value was roughly 100 fold and the “stoichiometry N” value was 1 CHIKV-26 per NTF2L (1:1).

The values are drawn from paper PMC12077208, “Cryo-EM reveals a double oligomeric ring scaffold of the CHIKV nsP3 peptide in complex with the NTF2L domain of host G3BP1” (mBio, 2025).
